# Results as given in patent US11505783B2, “Differentiation of human embryonic stem cells” (Janssen Biotech, Inc., priority 2007, dated 2022).
# Tested on: human embryonic stem cell line H1
# Test: FACS analysis of insulin and synaptophysin in stage 6 cultures, Chordin instead of Noggin (Example 15)
# Type: cell-based
# Conditions: 50-100 ng/ml at stages 3-4 instead of Noggin, compared with Noggin
# Protocol: Cells were dissociated into single cells from monolayer cultures using TrypLE Express (Invitrogen, Carlsbad, Calif.) and washed in cold PBS. For fixation, cells were resuspended in 200-300 μl Cytofix/Cytoperm Buffer (BD 554722, BD, Ca) and incubated for 30 min at 4° C. Cells were washed two times in 1 ml Perm/Wash Buffer Solution (BD 554723) and resuspended in 100 μl staining/blocking solution containing 2% normal goat serum in Perm/Wash buffer. For flow cytometric analysis, cells were stained with the following primary antibodies: Anti-Insulin (Rabbit mAb, Cell Signaling No. C27C9; 1:100 dilution), Anti-Glucagon (Mouse Mab, Sigma No. G2654, 1:100); Anti-Synaptophysin (Rabbit Polyclonal antibody, DakoCytomation No A0010, 1:50); Cells were incubated for 30 min at 4° C. followed by two washes in Perm/Wash buffer and further 30 min incubation in appropriate secondary antibodies as follows: Goat anti-Rabbit Alexa 647 (Invitrogen No. A21246) or Goat anti-Mouse 647 (Invitrogen No. A21235); Goat anti-Rabbit R-PE (BioSource No. ALI4407). All secondary antibodies were used at 1:200 dilution. Cells were washed at least once in Perm/Wash buffer and analyzed using BD FACSArray. A least 10,000 events were acquired for analysis. Controls included undifferentiated H1 cells and b-TC (ATCC, VA) cell line. FIGS. 20A-20C show the percentage insulin positive and synapthophysin+ cells in stage 6 cultures. […]
molecule,measurement,value
"Chordin: known inhibitor of BMP signaling (R&D Systems) (protein, UniProt Q9H2X0 27-955, looked up) Chordin: AGPEPPVLPIRSEKEPLPVRGAAGCTFGGKVYALDETWHPDLGEPFGVMRCVLCACEAPQWGRRTRGPGRVSCKNIKPECPTPACGQPRQLPGHCCQTCPQERSSSERQPSGLSFEYPRDPEHRSYSDRGEPGAEERARGDGHTDFVALLTGPRSQAVARARVSLLRSSLRFSISYRRLDRPTRIRFSDSNGSVLFEHPAAPTQDGLVCGVWRAVPRLSLRLLRAEQLHVALVTLTHPSGEVWGPLIRHRALAAETFSAILTLEGPPQQGVGGITLLTLSDTEDSLHFLLLFRGLLEPRSGGLTQVPLRLQILHQGQLLRELQANVSAQEPGFAEVLPNLTVQEMDWLVLGELQMALEWAGRPGLRISGHIAARKSCDVLQSVLCGADALIPVQTGAAGSASLTLLGNGSLIYQVQVVGTSSEVVAMTLETKPQRRDQRTVLCHMAGLQPGGHTAVGICPGLGARGAHMLLQNELFLNVGTKDFPDGELRGHVAALPYCGHSARHDTLPVPLAGALVLPPVKSQAAGHAWLSLDTHCHLHYEVLLAGLGGSEQGTVTAHLLGPPGTPGPRRLLKGFYGSEAQGVVKDLEPELLRHLAKGMASLMITTKGSPRGELRGQVHIANQCEVGGLRLEAAGAEGVRALGAPDTASAAPPVVPGLPALAPAKPGGPGRPRDPNTCFFEGQQRPHGARWAPNYDPLCSLCTCQRRTVICDPVVCPPPSCPHPVQAPDQCCPVCPEKQDVRDLPGLPRSRDPGEGCYFDGDRSWRAAGTRWHPVVPPFGLIKCAVCTCKGGTGEVHCEKVQCPRLACAQPVRVNPTDCCKQCPVGSGAHPQLGDPMQADGPRGCRFAGQWFPESQSWHPSVPPFGEMSCITCRCGAGVPHCERDDCSLPLSCGSGKESRCCSRCTAHRRPAPETRTDPELEKEAEGS",expression of insulin and synaptophysin by FACS,very similar expression
